± gives the standard deviation of the averaged measurements.
The sequences below were run on ATP (assay: switch fluorescence ratio, 500 uM ATP over buffer (Cy3 cluster intensity, sum of 5 cycles each) (fold (ratio)); higher = stronger signal-on switching upon ATP binding; sequences stand for … in TCGTCGGCAGCGTCAGATGTGTATAAGAGACAGTTTTTTTTTTTTTTTTTTTTTTTTT…TC). Conditions: aptamer strand: ATP DNA aptamer (quencher-CACCTGGGGGAGTATTGCGGAGGAAGG + anchor), 100 nM annealed; ATP concentration: 500 uM.
Method in brief: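 Per cluster, summed Cy3 intensity from the target cycles was divided by that from the buffer cycles to give the fluorescence ratio, then averaged per switch-domain sequence. Clusters outside 100-1000 RFU were excluded. The Cy3-labelled switching-strand clusters, on a modified Illumina MiSeq flow-cell, were annealed to 100 nM quencher-labelled ATP aptamer and imaged in selection buffer, then after 15 min with 500 uM ATP at 22 °C, for five cycles with NaOH stripping and re-annealing between them.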
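Note: ATP exposure 15 min at 22 °C before imaging.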

Row | Sequence | switch fluorescence ratio
1 | AAATAATTGT | 1.019 ± 0.01
2 | AAATAATTTT | 1.01 ± 0.027
3 | AAATACTTGG | 1.04 ± 0.055
4 | AAATACTTTT | 1.03 ± 0.021
5 | AAATAGAAGA | 1.03 ± 0.038
6 | AAATAGGGGA | 0.989 ± 0.039
7 | AAATAGGTTA | 1.02 ± 0.046
8 | AAATAGGTTT | 1 ± 0.044
9 | AAATATCGGT | 0.971 ± 0.018
10 | AAATATGGTG | 1 ± 0.021
11 | AAATATTGTT | 0.976 ± 0.027
12 | AAATATTTCG | 1.02 ± 0.03
13 | AAATCATATG | 1.08 ± 0.087
14 | AAATCATTGT | 1 ± 0.014
15 | AAATCCGATT | 1.01 ± 0.011
16 | AAATCCTTAT | 0.996 ± 0.063
17 | AAATCGAGCG | 0.969 ± 0.025
18 | AAATCGCATG | 1.03 ± 0.019
19 | AAATCGGAAA | 0.98 ± 0.028
20 | AAATCGTAGG | 0.963 ± 0.054
21 | AAATGATCTA | 1.01 ± 0.029
22 | AAATGCACAC | 1.107 ± 0.0021
23 | AAATGCAGGG | 1.01 ± 0.055
24 | AAATGCCACG | 1.06 ± 0.017
25 | AAATGCGGGG | 0.978 ± 0.036

Row | Sequence | switch fluorescence ratio
26 | AAATGGATTT | 1.01 ± 0.085
27 | AAATGGCCGG | 0.996 ± 0.024
28 | AAATGGTAGG | 0.996 ± 0.0086
29 | AAATGTCAAA | 0.986 ± 0.042
30 | AAATGTGGCG | 1.03 ± 0.011
31 | AAATGTTATC | 0.986 ± 0.042
32 | AAATTAAATT | 0.996 ± 0.039
33 | AAATTAATTT | 1.02 ± 0.043
34 | AAATTAGGGG | 0.9908 ± 0.0085
35 | AAATTAGTG | 1.05 ± 0.059
36 | AAATTCATTG | 0.969 ± 0.04
37 | AAATTCGATT | 1.032 ± 0.0037
38 | AAATTCGGGT | 0.981 ± 0.016
39 | AAATTCGGTG | 0.999 ± 0.016
40 | AAATTGAGGC | 0.96 ± 0.027
41 | AAATTGCCTG | 1.01 ± 0.047
42 | AAATTGCTGC | 1.01 ± 0.036
43 | AAATTGGACT | 1.02 ± 0.033
44 | AAATTGGGCA | 0.997 ± 0.029
45 | AAATTGGGGA | 0.986 ± 0.014
46 | AAATTGGTAA | 1 ± 0.017
47 | AAATTTAGCA | 0.99 ± 0.052
48 | AAATTTGGCT | 0.992 ± 0.071
49 | AAATTTTTGG | 1.01 ± 0.045
50 | AACAAACCGT | 1.1 ± 0.017

Row | Sequence | switch fluorescence ratio
51 | AACAAGGGCT | 1.04 ± 0.014
52 | AACAATGAAG | 1.03 ± 0.022
53 | AACAATGGGG | 1.03 ± 0.077
54 | AACACATGCG | 0.9936 ± 0.0015
55 | AACACCAGGT | 1.38 ± 0.45
56 | AACACCTAGG | 1.02 ± 0.028
57 | AACACGAATT | 0.998 ± 0.025
58 | AACAGAAGAG | 1.007 ± 0.01
59 | AACAGATTTT | 0.998 ± 0.011
60 | AACAGCAGGC | 1.16 ± 0.013
61 | AACAGCTGTT | 0.972 ± 0.035
62 | AACAGGCTGG | 1.01 ± 0.013
63 | AACAGGGAGG | 0.993 ± 0.032
64 | AACAGTACAC | 1.22 ± 0.023
65 | AACATGCTTA | 0.972 ± 0.02
66 | AACATGTCTC | 1.01 ± 0.043
67 | AACATTAAAT | 1.1 ± 0.1
68 | AACCAGCGGA | 0.994 ± 0.019
69 | AACCATTGCT | 1.048 ± 0.0053
70 | AACCCCGGGG | 1.02 ± 0.067
71 | AACCCGGGAA | 0.995 ± 0.042
72 | AACCGCGGTG | 0.984 ± 0.011
73 | AACCGCTTGG | 0.995 ± 0.056
74 | AACCGGATTC | 1 ± 0.02
75 | AACCGGGGGT | 0.991 ± 0.038

Row | Sequence | switch fluorescence ratio
76 | AACCTACGGC | 1.38 ± 0.083
77 | AACCTATTCT | 1.15 ± 0.17
78 | AACCTTTATA | 1.01 ± 0.012
79 | AACCTTTCTT | 1.46 ± 0.041
80 | AACGAAAGGG | 1.03 ± 0.074
81 | AACGACACAT | 1.46 ± 0.014
82 | AACGACGACG | 1.16 ± 0.05
83 | AACGATGAAG | 1.01 ± 0.043
84 | AACGATTTAT | 0.9936 ± 0.0068
85 | AACGCCGGCC | 1.01 ± 0.057
86 | AACGGCCCTG | 1.03 ± 0.026
87 | AACGGCTA | 1.047 ± 0.0045
88 | AACGGCTTCA | 1.057 ± 0.0029
89 | AACGGGCCAC | 1.079 ± 0.0077
90 | AACGGGGACT | 1.05 ± 0.063
91 | AACGGGGGAG | 0.979 ± 0.021
92 | AACGGGGTTA | 1.04 ± 0.06
93 | AACGGGTGAG | 0.9856 ± 0.0092
94 | AACGGTCAAA | 1.02 ± 0.028
95 | AACGGTTAAA | 1.011 ± 0.0022
96 | AACGTAGTTT | 1.02 ± 0.029
97 | AACGTCTTTT | 0.9826 ± 0.0038
98 | AACGTGGCGT | 1.023 ± 0.0066
99 | AACGTGTTGG | 1.013 ± 0.0015
100 | AACGTTAGGT | 0.9704 ± 0.0022

Reference: the supplement of paper PMC10126150
